This test addresses NMDA receptor of well-washed rat forebrain membranes (rat) (UniProt Q9R1M7). Nature of the test: cell-based or functional assay.
Sequence of NMDA receptor of well-washed rat forebrain membranes (rat) (Q9R1M7 24-1135): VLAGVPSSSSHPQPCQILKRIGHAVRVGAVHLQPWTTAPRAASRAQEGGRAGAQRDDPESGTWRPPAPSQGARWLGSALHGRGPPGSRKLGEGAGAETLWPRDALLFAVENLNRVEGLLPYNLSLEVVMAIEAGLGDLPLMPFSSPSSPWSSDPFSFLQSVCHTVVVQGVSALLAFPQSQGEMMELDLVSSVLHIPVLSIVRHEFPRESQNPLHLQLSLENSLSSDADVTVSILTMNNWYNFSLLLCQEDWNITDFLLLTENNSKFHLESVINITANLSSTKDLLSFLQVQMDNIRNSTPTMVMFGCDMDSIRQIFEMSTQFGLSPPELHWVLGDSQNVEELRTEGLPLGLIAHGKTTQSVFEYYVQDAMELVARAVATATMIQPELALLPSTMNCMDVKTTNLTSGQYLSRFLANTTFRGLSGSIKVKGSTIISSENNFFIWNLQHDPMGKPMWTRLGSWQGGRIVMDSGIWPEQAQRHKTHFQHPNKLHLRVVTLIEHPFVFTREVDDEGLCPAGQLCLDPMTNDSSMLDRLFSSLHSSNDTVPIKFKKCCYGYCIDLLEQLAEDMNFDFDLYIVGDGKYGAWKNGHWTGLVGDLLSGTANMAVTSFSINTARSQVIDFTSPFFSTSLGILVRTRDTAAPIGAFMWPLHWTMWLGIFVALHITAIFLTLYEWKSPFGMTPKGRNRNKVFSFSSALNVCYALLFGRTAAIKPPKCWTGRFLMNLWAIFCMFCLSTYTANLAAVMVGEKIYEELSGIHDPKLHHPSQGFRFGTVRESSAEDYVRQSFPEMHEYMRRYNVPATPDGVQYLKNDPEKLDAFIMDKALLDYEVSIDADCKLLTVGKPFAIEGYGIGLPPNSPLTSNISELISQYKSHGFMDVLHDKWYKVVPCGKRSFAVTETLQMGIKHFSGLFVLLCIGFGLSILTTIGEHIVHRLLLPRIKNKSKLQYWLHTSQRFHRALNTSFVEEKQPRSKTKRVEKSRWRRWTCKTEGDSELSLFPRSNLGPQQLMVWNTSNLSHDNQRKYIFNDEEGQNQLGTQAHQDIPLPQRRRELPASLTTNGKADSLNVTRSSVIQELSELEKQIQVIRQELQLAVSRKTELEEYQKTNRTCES
On to Ala10-Con-G (peptide), for which the % Inh, spermine-enhanced [3H]MK-801 binding was determined as 100%; the % Sti, [3H]MK-801 binding without spermine was determined as 0%; the IC (µM), inhibition of spermine-enhanced [3H]MK-801 binding was determined as 1.1 µM.
Turning to Ser^o-Con-G (peptide), the % Inh, spermine-enhanced [3H]MK-801 binding was found to be 41%; the % Sti, [3H]MK-801 binding without spermine was 0%; the IC (µM), inhibition of spermine-enhanced [3H]MK-801 binding was found to be 6.8 µM.
Regarding D-Glu3,4,7,10,14-Con-G (peptide), the % Inh, spermine-enhanced [3H]MK-801 binding came to 0%; the % Sti, [3H]MK-801 binding without spermine was found to be 30%; the EC (µM), stimulation of [3H]MK-801 binding without spermine amounted to 5.8 µM.
As for tBu-Tyr^o-Con-G (peptide), the % Inh, spermine-enhanced [3H]MK-801 binding is 29%; the % Sti, [3H]MK-801 binding without spermine was determined as 69%; the EC (µM), stimulation of [3H]MK-801 binding without spermine is 1 µM; the IC (µM), inhibition of spermine-enhanced [3H]MK-801 binding came to 1.5 µM.
Take Glu3,4,7,10,14-Con-G (peptide): the % Inh, spermine-enhanced [3H]MK-801 binding was found to be 22%; the % Sti, [3H]MK-801 binding without spermine turned out to be 79%; the EC (µM), stimulation of [3H]MK-801 binding without spermine worked out at 6.7 µM; the IC (µM), inhibition of spermine-enhanced [3H]MK-801 binding was 8.5 µM.
For the substance Ser4-Con-G (peptide), the % Inh, spermine-enhanced [3H]MK-801 binding was found to be 0% and the % Sti, [3H]MK-801 binding without spermine was 0%.
Turning to Tyr^o-Glu3,4,7,10,14-Con-G (peptide), the % Inh, spermine-enhanced [3H]MK-801 binding amounted to 0%; the % Sti, [3H]MK-801 binding without spermine turned out to be 31%; the EC (µM), stimulation of [3H]MK-801 binding without spermine came out at 2.7 µM.
As to Con-G(14-17) (peptide), the % Inh, spermine-enhanced [3H]MK-801 binding came to 0%; the % Sti, [3H]MK-801 binding without spermine turned out to be 61%; the EC (µM), stimulation of [3H]MK-801 binding without spermine was 1.3 µM.
As for Ala7,10,14-Con-G (peptide), the % Inh, spermine-enhanced [3H]MK-801 binding amounted to 100%; the % Sti, [3H]MK-801 binding without spermine stood at 0%; the IC (µM), inhibition of spermine-enhanced [3H]MK-801 binding stood at 0.5 µM.
As to Con-G(15-17) (peptide), the % Inh, spermine-enhanced [3H]MK-801 binding amounted to 0%; the % Sti, [3H]MK-801 binding without spermine stood at 20%; the EC (µM), stimulation of [3H]MK-801 binding without spermine amounted to 61.7 µM.
As to Con-G(1-5) (peptide), the % Inh, spermine-enhanced [3H]MK-801 binding came to 50%; the % Sti, [3H]MK-801 binding without spermine came to 0%; the IC (µM), inhibition of spermine-enhanced [3H]MK-801 binding came out at 7.43 µM.
In turn, ConG(1-5)GGGG(14-17) (peptide) came in with a % Sti, [3H]MK-801 binding without spermine of 0%.
For ConG(1-5)(14-17) (peptide), the % Inh, spermine-enhanced [3H]MK-801 binding was determined as 15%; the % Sti, [3H]MK-801 binding without spermine is 0%; the IC (µM), inhibition of spermine-enhanced [3H]MK-801 binding turned out to be 100 µM.
For Ser10-Con-G (peptide), in that order: 100%, 0% and 1.8 µM.
The corresponding values for Ala14-Con-G (peptide) are 100%, 0% and 0.16 µM.
With ConG(1-5)GG(14-17) (peptide), the % Sti, [3H]MK-801 binding without spermine turned out to be 0%.
Take Glu14-Con-G(12-17) (peptide): the % Inh, spermine-enhanced [3H]MK-801 binding was determined as 0%; the % Sti, [3H]MK-801 binding without spermine is 30%; the EC (µM), stimulation of [3H]MK-801 binding without spermine amounted to 47 µM.
For the substance Glu4-Con-G (peptide), the % Inh, spermine-enhanced [3H]MK-801 binding came to 0% and the % Sti, [3H]MK-801 binding without spermine came out at 0%.
Turning to Tyr^o-Con-G (peptide), the % Inh, spermine-enhanced [3H]MK-801 binding was determined as 0% and the % Sti, [3H]MK-801 binding without spermine came out at 0%.
In the case of Ser3-Con-G (peptide), the % Inh, spermine-enhanced [3H]MK-801 binding was found to be 23%; the % Sti, [3H]MK-801 binding without spermine came out at 62%; the EC (µM), stimulation of [3H]MK-801 binding without spermine turned out to be 8.4 µM; the IC (µM), inhibition of spermine-enhanced [3H]MK-801 binding is 3.6 µM.
With Ac-Tyr^o-Con-G (peptide), the % Inh, spermine-enhanced [3H]MK-801 binding was 73%; the % Sti, [3H]MK-801 binding without spermine worked out at 0%; the IC (µM), inhibition of spermine-enhanced [3H]MK-801 binding is 18.3 µM.
For Ser14-Con-G (peptide), in that order: 100%, 0% and 0.16 µM.
For Ala4-Con-G (peptide), the % Inh, spermine-enhanced [3H]MK-801 binding is 0% and the % Sti, [3H]MK-801 binding without spermine was found to be 0%.
Regarding Glu 3,4,7,10,14-Con-G(2-17) (peptide), the % Inh, spermine-enhanced [3H]MK-801 binding was found to be 70%; the % Sti, [3H]MK-801 binding without spermine came to 33%; the EC (µM), stimulation of [3H]MK-801 binding without spermine is 0.9 µM; the IC (µM), inhibition of spermine-enhanced [3H]MK-801 binding was determined as 5.4 µM.
In the case of Glu10,14-Con-G(9-17) (peptide), the % Inh, spermine-enhanced [3H]MK-801 binding worked out at 0% and the % Sti, [3H]MK-801 binding without spermine is 0%.
On to Ser(p)10-Con-G (peptide), for which the % Inh, spermine-enhanced [3H]MK-801 binding stood at 100%; the % Sti, [3H]MK-801 binding without spermine was 0%; the IC (µM), inhibition of spermine-enhanced [3H]MK-801 binding turned out to be 0.56 µM.
The corresponding values for Asn(GlcNAc)^o-Con-G (peptide) are 38%, 0% and 8.8 µM.
For the substance Phe^o-Con-G (peptide), the % Inh, spermine-enhanced [3H]MK-801 binding worked out at 51%; the % Sti, [3H]MK-801 binding without spermine turned out to be 53%; the EC (µM), stimulation of [3H]MK-801 binding without spermine turned out to be 6.8 µM; the IC (µM), inhibition of spermine-enhanced [3H]MK-801 binding was 6.1 µM.
Turning to Con-G-OH (peptide), the % Inh, spermine-enhanced [3H]MK-801 binding was determined as 0% and the % Sti, [3H]MK-801 binding without spermine stood at 0%.
Consider Glu7,10,14-Con-G (peptide), for which the % Inh, spermine-enhanced [3H]MK-801 binding stood at 70%; the % Sti, [3H]MK-801 binding without spermine was determined as 0%; the IC (µM), inhibition of spermine-enhanced [3H]MK-801 binding was greater than 5 µM.
The corresponding values for Ser(p)14-Con-G (peptide) are 31%, 0% and 1.12 µM.
The substance ConG(1-5)AA(14-17) (peptide) returned a % Sti, [3H]MK-801 binding without spermine of 0%.
Consider Tyr7-Con-G (peptide), for which the % Inh, spermine-enhanced [3H]MK-801 binding is 100%; the % Sti, [3H]MK-801 binding without spermine was determined as 0%; the IC (µM), inhibition of spermine-enhanced [3H]MK-801 binding is 0.5 µM.
iodo-Tyr7-Con-G (peptide): the % Inh, spermine-enhanced [3H]MK-801 binding came out at 100%; the % Sti, [3H]MK-801 binding without spermine came out at 0%; the IC (µM), inhibition of spermine-enhanced [3H]MK-801 binding worked out at 0.5 µM.
As for Ser(p)4-Con-G (peptide), the % Inh, spermine-enhanced [3H]MK-801 binding stood at 0% and the % Sti, [3H]MK-801 binding without spermine turned out to be 0%.
In the case of ConG(1-6)A7(14-17) (peptide), the % Sti, [3H]MK-801 binding without spermine is 0%.
Consider ConG(1-5)AAAA(14-17) (peptide), for which the % Sti, [3H]MK-801 binding without spermine turned out to be 0%.
On to Ser7-Con-G (peptide), for which the % Inh, spermine-enhanced [3H]MK-801 binding was 100%; the % Sti, [3H]MK-801 binding without spermine came out at 0%; the IC (µM), inhibition of spermine-enhanced [3H]MK-801 binding was 0.25 µM.
On to Ac-Con-G (peptide), for which the % Inh, spermine-enhanced [3H]MK-801 binding came to 0% and the % Sti, [3H]MK-801 binding without spermine is 0%.
Glu 7,10,14-Con-G(6-17) (peptide): the % Inh, spermine-enhanced [3H]MK-801 binding was determined as 0% and the % Sti, [3H]MK-801 binding without spermine worked out at 0%.
Ser(p)3-Con-G (peptide): the % Inh, spermine-enhanced [3H]MK-801 binding came to 34%; the % Sti, [3H]MK-801 binding without spermine came to 68%; the EC (µM), stimulation of [3H]MK-801 binding without spermine was 3.5 µM; the IC (µM), inhibition of spermine-enhanced [3H]MK-801 binding is 0.9 µM.
Turning to Con-G(12-17) (peptide), the % Inh, spermine-enhanced [3H]MK-801 binding was 0%; the % Sti, [3H]MK-801 binding without spermine amounted to 20%; the EC (µM), stimulation of [3H]MK-801 binding without spermine turned out to be 58 µM.
For Tyr3-Con-G (peptide), the % Inh, spermine-enhanced [3H]MK-801 binding came to 0% and the % Sti, [3H]MK-801 binding without spermine was determined as 0%.
With Ala3-Con-G (peptide), the % Inh, spermine-enhanced [3H]MK-801 binding worked out at 34%; the % Sti, [3H]MK-801 binding without spermine came to 0%; the IC (µM), inhibition of spermine-enhanced [3H]MK-801 binding came to 1.8 µM.
For Tyr(p)^o-Con-G (peptide), the % Inh, spermine-enhanced [3H]MK-801 binding worked out at 0% and the % Sti, [3H]MK-801 binding without spermine was found to be 0%.
On to Phe(pCl)^o-Con-G (peptide), for which the % Inh, spermine-enhanced [3H]MK-801 binding is 0% and the % Sti, [3H]MK-801 binding without spermine worked out at 0%.
In the case of Tyr(oMe)^o-Con-G (peptide), the % Inh, spermine-enhanced [3H]MK-801 binding was 0% and the % Sti, [3H]MK-801 binding without spermine came out at 0%.
As to Con-G(12-15) (peptide), the % Inh, spermine-enhanced [3H]MK-801 binding was 0%; the % Sti, [3H]MK-801 binding without spermine was 20%; the EC (µM), stimulation of [3H]MK-801 binding without spermine amounted to 69.8 µM.
Take Asn^o-Con-G (peptide): the % Inh, spermine-enhanced [3H]MK-801 binding is 83%; the % Sti, [3H]MK-801 binding without spermine amounted to 0%; the IC (µM), inhibition of spermine-enhanced [3H]MK-801 binding stood at 8.7 µM.
The corresponding values for Ser(p)7-Con-G (peptide) are 50%, 0% and 1.04 µM.
ConG(1-6)A5(14-17) (peptide) had a % Sti, [3H]MK-801 binding without spermine of 0%.
In the case of di-iodo-Tyr7-Con-G (peptide), the % Inh, spermine-enhanced [3H]MK-801 binding came out at 100%; the % Sti, [3H]MK-801 binding without spermine amounted to 0%; the IC (µM), inhibition of spermine-enhanced [3H]MK-801 binding was 0.5 µM.

Values taken from patent US20030134799A1.
